Data published in patent US7115556B2, “Use of anti-prolactin agents to treat proliferative conditions” (Greenville Hospital System, priority 1998, dated 2006).

Legend:
[1] = tested on: MCF-7 human breast cancer cells; assay: Mixed cell culture assay with transfected L cells, MCF-7; format: cell-based; settings: MCF-7, three days
[2] = tested on: T47-D human breast cancer cells; assay: 96 well cell proliferation assay with conditioned media (MTS-PMS); format: cell-based
Procedure: HPRLG129R Conditioned Media. The assay conditions were modified from that described by Ginsburg and Vonderharr (1995, Cancer Res. 55:2591–2595). T47-D cells were trypsinized and passed into 96 well plates in RPMI-1640 media containing 1% DCC-FCS in a volume of 100 μl/well. The optimal cell number/well for each cell line was pre-determined after titration assay. For T47-D cells, 15,000 cells/well were plated. The cells were allowed to settle and adhere overnight (12–18 hours) and subsequently various concentrations of either hPRL, hRPL-G129R, E2 or 4-OH-Tamoxifen in a total volume of 100 μl of culture media were added. Purified hPRL (kindly provided by Dr. Parlow, National Hormone & Pituitary Program, NIH) was used as a positive control for hPRL produced from stable L cells. Cells were incubated for an additional 96 hours at 37° C. in a humidified 5% CO2 incubator. After incubation, MTS-PMS solution (Cell Titer 96 Aqueous kit, Promega Corp.) was added to each well, following the manufacturer's instructions. Plates were read at 490 nm using a BIO-RAD benchmark microplate reader. The experiments were carried out in triplicates and repeated three to six times for each cell line.

[3] = tested on: MCF-7 cells; assay: Co-culture with L-G129R cells, MCF-7; format: cell-based, human; settings: MCF-7 co-cultured with L-G129R cells; more hPRL-G129R required than for T47-D
From the text: The co-culture experimental set-up provides a sustained presence of biologically active hPRL-G129R, thereby resulting in a maximal response in these tumor cells.

[4] = tested on: MCF-7 cells; assay: TUNEL assay, MCF-7; format: cell-based, human; settings: 250 ng G129R, 24 hours
Procedure: Cell Culture. T-47D cells obtained from ATCC were grown in RPMI 1640 (phenol red free), supplemented with 10% FBS (GIBCO BRL). BT-474 cells were grown in RPMI 1640 medium (phenol red free) supplemented with 10% FBS and ATCC recommended supplements. MCF-7 cells were grown in DMEM medium (phenol red free), supplemented with 10% FBS. The cells were grown at 37° C. in a humid atmosphere in the presence of 5% CO2. The MDA-MB-134 cells were grown in Leibovitz's L-15 medium supplemented with 20% FBS and grown in CO2 free atmosphere. The breast cancer cells were trypsinized (0.02% Trypsin—EDTA) and grown in their respective media (phenol red free) supplemented with 10% CSS (Charcoal stripped serum) for a week. Subsequently the cells were trypsinized again and plated onto an 8 chambered slide system (Lab Tek II) at a confluence of 60–70% per chamber. The next day treatments were performed on the breast cancer cells using their respective media(phenol red free), supplemented with 1% CSS. The MDA-MB-134 VI cells were grown in phenol red containing medium, but with the same serum conditions as the other breast cancer cells.
Terminal deoxynucleotidly transferase mediated dUTP nick end labeling (TUNEL) assay. Nicks of the fragmented DNA are labeled at their 3-OH ends. The fluorescein-labeled dUTP is incorporated at the 3-OH ends by using the enzyme terminal deoxynucleotidyl transferase. […]

[5] = biological target: T1, Caspase-3 (Homo sapiens, UniProt P42574); assay: ApopAlert CPP32/Caspase-3 assay in T-47D cells; format: cell-based; settings: 250 ng/ml, 2 h, with DEVD-CHO control
T1 construct: endogenous in cells; host or cells: T-47D
T1 sequence (P42574 29-277): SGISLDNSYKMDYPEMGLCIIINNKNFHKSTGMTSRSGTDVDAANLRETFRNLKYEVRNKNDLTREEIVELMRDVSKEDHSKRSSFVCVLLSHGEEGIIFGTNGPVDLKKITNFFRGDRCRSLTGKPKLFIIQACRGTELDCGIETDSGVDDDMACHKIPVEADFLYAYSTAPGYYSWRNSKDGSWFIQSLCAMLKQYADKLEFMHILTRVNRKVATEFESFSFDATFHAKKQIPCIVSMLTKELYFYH
Procedure: FIG. 24. Induction of Caspase-3 by bPRL-G129R. The effect of hPRL-G129R on Caspase-3 activation in T-47D cells using an ApopAlert CPP32/Caspase-3 assay kit (Clontech, Palo Alto, Calif.) is shown. T-47D cells were treated with 250 ng/ml of hPRL-G129R for 2 h. […] The samples were in duplicate and each sample constituted about 2 million cells.
In addition, the effect of hPRL-G129R on Caspase-3 activation was assayed in T-47D cells using an ApopAlert CPP32/Caspase-3 assay kit (Clontech, Palo Alto, Calif.) as presented in FIG. 24. T-47D cells were treated with 250 ng/ml of hPRL-G129R for 2 h.

[6] = tested on: T47-D human breast cancer cells; assay: Light microscopic examination of T47-D cells; format: cell-based; settings: single dose 200 ng/ml, 4-day incubation
Procedure: FIGS. 14A–E. Light microscopic examination of T47-D human breast cancer cells after single dose of 200 ng/ml hPRL (15B); 200 ng/ml of HPRL-G129R (15C); 200 nM of E2 (15D); or 200 nM of 4-OH-Tamoxifen (15E) treatment after 4-day incubation as compared to control (15A).×200.
Human Breast Cancer Cell Proliferation Assays. Human PRL and hPRL-G129R were tested further for their ability to stimulate/inhibit breast cancer cell proliferation in cell culture. Light microscopic examination of breast cancer cell proliferation after hPRL, hPRL-G129R, E2 and 4-OH-Tamoxifen is shown in FIGS. 14A–E. It is clear that there is a significant difference in cell density between hPRL (15B), hPRL-G129R(15C) and E2 (15D), 4-OH-Tamoxifen (15E) treated cells.

- Caspase-3 activation [5]: Caspase-3 induction
B1: hPRL-G129R: variant of human prolactin having a substitution of the glycine at position 129 with an arginine residue; prolactin receptor antagonist (protein)
chain: LPICPGGAARCQVTLRDLFDRAVVLSHYIHNLSSEMFSEFDKRYTHGRGFITKAINSCHTSSLATPEDKEQAQQMNQKDFLSLIVSILRSWNEPLYHLVTEVRGMQEAPEAILSKAVEIEEQTKRLLERMELIVSQVHPETKENEIYPVWSGLPSLQMADEESRLSAYYNLLHCLRRDSHKIDNYLKLLKCRIIHNNNC
- effect on proliferation in mixed cell culture [1]: inhibitory effect
- inhibitory effect of combination ([2]; 100 nM 4-OH-Tamoxifen in the presence of 100 ng/ml hPRL-G129R): approximately 32 % of control
- effect on hPRL induced cell proliferation ([2]; 1:1 molar ratio hPRL-G129R:hPRL): stop the stimulatory effect of hPRL
- effect on hPRL induced cell proliferation ([2]; 2:1 molar ratio hPRL-G129R:hPRL): inhibited cell proliferation
- maximum inhibition by a single dose ([2]; 4-OH-Tamoxifen at 500 nM, T47-D): 25 % of control
- inhibitory potency compared with maximal 500 nM dose of 4-OH-Tamoxifen ([2]; hPRL-G129R 150 ng/ml): more potent
- inhibitory effects of combination compared to maximum dose of either agent ([2]; hPRL-G129R applied together with 4-OH-Tamoxifen): doubled
- effect on T47-D proliferation, dose response ([2]; single dose, four-day incubation): dose dependent inhibitory effects
- inhibition of cell proliferation in co-culture [3]: Complete inhibition
- induction of apoptosis DNA fragmentation [4]: induced apoptosis
- overall cell condition under light microscopy [6]: not as healthy
